Measured values as given in FireProtDB (doi:10.1111/j.1432-1033.1994.tb18664.x).

B1: Ribonuclease HI, P0A7Y4 (parent)
chain: MLKQVEIFTDGSCLGNPGPGGYGAILRYRGREKTFSAGYTRTTNNRMELMAAIVALEALKEHCEVILSTDSQYVRQGITQWIHNWKKRGWKTADKKPVKNVDLWQRLDAALGQHQIKWEWVKGHAGHPENERCDELARAAAMNPTLEDTGYQVEV

Variants of: B1
Conditions: Escherichia coli (strain K12), Thermal, CD, NaCl 0.1 M, reversible: yes, structure 2RN2, whole UniProt chain shown
[1] = pH 5.5, 53.1 °C, Sodium acetate 20 mM

| Variant | ddG of mutation (higher = less stable) (pH 3, 50 °C, glycine-HCl 10 mM) [kcal/mol] | Tm (pH 3, glycine-HCl 10 mM) [°C] | change of melting temperature, mutant - wild type (higher = more stable) (pH 3, glycine-HCl 10 mM) [°C] | unfolding enthalpy (van 't Hoff) (pH 3, glycine-HCl 10 mM) [kcal/mol] | ddG of mutation (higher = less stable) [1] [kcal/mol] | Tm (pH 5.5, Sodium acetate 20 mM) [°C] | change of melting temperature, mutant - wild type (higher = more stable) (pH 5.5, Sodium acetate 20 mM) [°C] | unfolding enthalpy (van 't Hoff) (pH 5.5, Sodium acetate 20 mM) [kcal/mol] |
| --- | --- | --- | --- | --- | --- | --- | --- | --- |
| D134E | -0.72 | 52.4 | 2.4 | 108 | -0.86 | 56.2 | 3.1 | 102 |
| D134A | -0.89 | – | – | – | -1.51 | 58.6 | 5.5 | 118 |
| D134N | 0.1 | 49.7 | -0.3 | 110 | – | 56.3 | 3.2 | 96.9 |
| D134H | -0.53 | 51.7 | 1.7 | 106 | -1.94 | – | – | – |
| D134V | -0.31 | 51.1 | 1.1 | 107 | -1.12 | 57.2 | 4.1 | 99 |
| D134I | -0.69 | 52.3 | 2.3 | 105 | -1.27 | 57.7 | 4.6 | 101 |
| D134L | -1.15 | 53.8 | 3.8 | 118 | -1.51 | 58.6 | 5.5 | 96.4 |
| D134S | -0.26 | 50.9 | 0.9 | 106 | -1.08 | – | – | – |
| D134Q | -0.48 | 51.6 | 1.6 | 114 | -1.32 | 57.9 | 4.8 | 96.9 |
| D134T | -0.12 | 50.4 | 0.4 | 107 | – | 57 | 3.9 | 90.2 |
